This note sets out measurements from patent US20130143798A1 (Novo Nordisk, published 2013).

The chains are these.
B1: (N^ε24-([2-[2-[2-[[2-[2-[2-[[(4S)-5-hydroxy-4-[(18-hydroxy-18-oxooctadecanoyl)amino]-5-oxopentanoyl]amino]ethoxy]ethoxy]acetyl]amino]ethoxy]ethoxy]acetyl])[Gln^ … (peptide)
peptide: HSQGTFTSDYSKYLDSQRAQDFVK([AEEA-AEEA-γGlu-C18 diacid])WLVKTGP-NH2
modifications: N-terminus assumed
SMILES: CC(C)C[C@H](NC(=O)[C@H](Cc1ccc(O)cc1)NC(=O)[C@H](CCCCN)NC(=O)[C@H](CO)NC(=O)[C@H](Cc1ccc(O)cc1)NC(=O)[C@H](CC(=O)O)NC(=O)[C@H](CO)NC(=O)[C@@H](NC(=O)[C@H](Cc1ccccc1)NC(=O)[C@@H](NC(=O)CNC(=O)[C@H](CCC(N)=O)NC(=O)[C@H](CO)NC(=O)[C@@H](N)Cc1c[nH]cn1)[C@@H](C)O)[C@@H](C)O)C(=O)N[C@@H](CC(=O)O)C(=O)N[C@@H](CO)C(=O)N[C@@H](CCC(N)=O)C(=O)N[C@@H](CCCNC(=N)N)C(=O)N[C@@H](C)C(=O)N[C@@H](CCC(N)=O)C(=O)N[C@@H](CC(=O)O)C(=O)N[C@@H](Cc1ccccc1)C(=O)N[C@H](C(=O)N[C@@H](CCCCNC(=O)COCCOCCNC(=O)COCCOCCNC(=O)CC[C@H](NC(=O)CCCCCCCCCCCCCCCCC(=O)O)C(=O)O)C(=O)N[C@@H](Cc1c[nH]c2ccccc12)C(=O)N[C@@H](CC(C)C)C(=O)N[C@H](C(=O)N[C@@H](CCCCN)C(=O)N[C@H](C(=O)NCC(=O)N1CCC[C@H]1C(N)=O)[C@@H](C)O)C(C)C)C(C)C
B2: N^ε16-([2-[2-[2-[[2-[2-[2-[[(4S)-5-hydroxy-4-[(18-hydroxy-18-oxooctadecanoyl)amino]-5-oxopentanoyl]amino]ethoxy]ethoxy]acetyl]amino]ethoxy]ethoxy]acetyl])[Lys^1 … (peptide)
peptide: HSQGTFTSDYSKYLDK([AEEA-AEEA-γGlu-C18 diacid])KRAQEFVQWLLNT-NH2
modifications: N-terminus assumed
SMILES: CC(C)C[C@H](NC(=O)[C@H](Cc1ccc(O)cc1)NC(=O)[C@H](CCCCN)NC(=O)[C@H](CO)NC(=O)[C@H](Cc1ccc(O)cc1)NC(=O)[C@H](CC(=O)O)NC(=O)[C@H](CO)NC(=O)[C@@H](NC(=O)[C@H](Cc1ccccc1)NC(=O)[C@@H](NC(=O)CNC(=O)[C@H](CCC(N)=O)NC(=O)[C@H](CO)NC(=O)[C@@H](N)Cc1c[nH]cn1)[C@@H](C)O)[C@@H](C)O)C(=O)N[C@@H](CC(=O)O)C(=O)N[C@@H](CCCCNC(=O)COCCOCCNC(=O)COCCOCCNC(=O)CC[C@H](NC(=O)CCCCCCCCCCCCCCCCC(=O)O)C(=O)O)C(=O)N[C@@H](CCCCN)C(=O)N[C@@H](CCCNC(=N)N)C(=O)N[C@@H](C)C(=O)N[C@@H](CCC(N)=O)C(=O)N[C@@H](CCC(=O)O)C(=O)N[C@@H](Cc1ccccc1)C(=O)N[C@H](C(=O)N[C@@H](CCC(N)=O)C(=O)N[C@@H](Cc1c[nH]c2ccccc12)C(=O)N[C@@H](CC(C)C)C(=O)N[C@@H](CC(C)C)C(=O)N[C@@H](CC(N)=O)C(=O)N[C@H](C(N)=O)[C@@H](C)O)C(C)C
B3: N^ε24-([2-[2-[2-[[2-[2-[2-[[(4S)-5-hydroxy-4-[(18-hydroxy-18-oxooctadecanoyl)amino]-5-oxopentanoyl]amino]ethoxy]ethoxy]acetyl]amino]ethoxy]ethoxy]acetyl])[Glu^1 … (peptide)
peptide: HSQGTFTSDYSKYLDEKAAQEFVK([AEEA-AEEA-γGlu-C18 diacid])WLLNT-NH2
modifications: N-terminus assumed
SMILES: CC(C)C[C@H](NC(=O)[C@H](Cc1ccc(O)cc1)NC(=O)[C@H](CCCCN)NC(=O)[C@H](CO)NC(=O)[C@H](Cc1ccc(O)cc1)NC(=O)[C@H](CC(=O)O)NC(=O)[C@H](CO)NC(=O)[C@@H](NC(=O)[C@H](Cc1ccccc1)NC(=O)[C@@H](NC(=O)CNC(=O)[C@H](CCC(N)=O)NC(=O)[C@H](CO)NC(=O)[C@@H](N)Cc1c[nH]cn1)[C@@H](C)O)[C@@H](C)O)C(=O)N[C@@H](CC(=O)O)C(=O)N[C@@H](CCC(=O)O)C(=O)N[C@@H](CCCCN)C(=O)N[C@@H](C)C(=O)N[C@@H](C)C(=O)N[C@@H](CCC(N)=O)C(=O)N[C@@H](CCC(=O)O)C(=O)N[C@@H](Cc1ccccc1)C(=O)N[C@H](C(=O)N[C@@H](CCCCNC(=O)COCCOCCNC(=O)COCCOCCNC(=O)CC[C@H](NC(=O)CCCCCCCCCCCCCCCCC(=O)O)C(=O)O)C(=O)N[C@@H](Cc1c[nH]c2ccccc12)C(=O)N[C@@H](CC(C)C)C(=O)N[C@@H](CC(C)C)C(=O)N[C@@H](CC(N)=O)C(=O)N[C@H](C(N)=O)[C@@H](C)O)C(C)C
B4: N^ε24-([2-[2-[2-[[2-[2-[2-[[(4S)-5-hydroxy-4-[(18-hydroxy-18-oxooctadecanoyl)amino]-5-oxopentanoyl]amino]ethoxy]ethoxy]acetyl]amino]ethoxy]ethoxy]acetyl])[Glu^1 … (peptide)
peptide: HSQGTFTSDYSKYLDEKRAQEFVK([AEEA-AEEA-γGlu-C18 diacid])WLLNT-NH2
modifications: N-terminus assumed
SMILES: CC(C)C[C@H](NC(=O)[C@H](Cc1ccc(O)cc1)NC(=O)[C@H](CCCCN)NC(=O)[C@H](CO)NC(=O)[C@H](Cc1ccc(O)cc1)NC(=O)[C@H](CC(=O)O)NC(=O)[C@H](CO)NC(=O)[C@@H](NC(=O)[C@H](Cc1ccccc1)NC(=O)[C@@H](NC(=O)CNC(=O)[C@H](CCC(N)=O)NC(=O)[C@H](CO)NC(=O)[C@@H](N)Cc1c[nH]cn1)[C@@H](C)O)[C@@H](C)O)C(=O)N[C@@H](CC(=O)O)C(=O)N[C@@H](CCC(=O)O)C(=O)N[C@@H](CCCCN)C(=O)N[C@@H](CCCNC(=N)N)C(=O)N[C@@H](C)C(=O)N[C@@H](CCC(N)=O)C(=O)N[C@@H](CCC(=O)O)C(=O)N[C@@H](Cc1ccccc1)C(=O)N[C@H](C(=O)N[C@@H](CCCCNC(=O)COCCOCCNC(=O)COCCOCCNC(=O)CC[C@H](NC(=O)CCCCCCCCCCCCCCCCC(=O)O)C(=O)O)C(=O)N[C@@H](Cc1c[nH]c2ccccc12)C(=O)N[C@@H](CC(C)C)C(=O)N[C@@H](CC(C)C)C(=O)N[C@@H](CC(N)=O)C(=O)N[C@H](C(N)=O)[C@@H](C)O)C(C)C
B5: N^ε24-([2-[2-[2-[[2-[2-[2-[[(4S)-5-hydroxy-4-[(18-hydroxy-18-oxooctadecanoyl)amino]-5-oxopentanoyl]amino]ethoxy]ethoxy]acetyl]amino]ethoxy]ethoxy]acetyl])[Glu^1 … (peptide)
peptide: HSQGTFTSDYSKYLDERRAQDFVK([AEEA-AEEA-γGlu-C18 diacid])WLLAT-NH2
modifications: N-terminus assumed
SMILES: CC(C)C[C@H](NC(=O)[C@H](CC(C)C)NC(=O)[C@H](Cc1c[nH]c2ccccc12)NC(=O)[C@H](CCCCNC(=O)COCCOCCNC(=O)COCCOCCNC(=O)CC[C@H](NC(=O)CCCCCCCCCCCCCCCCC(=O)O)C(=O)O)NC(=O)[C@@H](NC(=O)[C@H](Cc1ccccc1)NC(=O)[C@H](CC(=O)O)NC(=O)[C@H](CCC(N)=O)NC(=O)[C@H](C)NC(=O)[C@H](CCCNC(=N)N)NC(=O)[C@H](CCCNC(=N)N)NC(=O)[C@H](CCC(=O)O)NC(=O)[C@H](CC(=O)O)NC(=O)[C@H](CC(C)C)NC(=O)[C@H](Cc1ccc(O)cc1)NC(=O)[C@H](CCCCN)NC(=O)[C@H](CO)NC(=O)[C@H](Cc1ccc(O)cc1)NC(=O)[C@H](CC(=O)O)NC(=O)[C@H](CO)NC(=O)[C@@H](NC(=O)[C@H](Cc1ccccc1)NC(=O)[C@@H](NC(=O)CNC(=O)[C@H](CCC(N)=O)NC(=O)[C@H](CO)NC(=O)[C@@H](N)Cc1c[nH]cn1)[C@@H](C)O)[C@@H](C)O)C(C)C)C(=O)N[C@@H](C)C(=O)N[C@H](C(N)=O)[C@@H](C)O
B6: N^[24-([2-[2-[2-[[2-[2-[2-[[(4S)-5-hydroxy-4-[(18-hydroxy-18-oxooctadecanoyl)amino]-5-oxopentanoyl]amino]ethoxy]ethoxy]acetyl]amino]ethoxy]ethoxy]acetyl])[Lys^1 … (peptide)
peptide: HSQGTFTSDYSKYLDSKRAQEFVK([AEEA-AEEA-γGlu-C18 diacid])WLLNT-NH2
modifications: N-terminus assumed
SMILES: CC(C)C[C@H](NC(=O)[C@H](Cc1ccc(O)cc1)NC(=O)[C@H](CCCCN)NC(=O)[C@H](CO)NC(=O)[C@H](Cc1ccc(O)cc1)NC(=O)[C@H](CC(=O)O)NC(=O)[C@H](CO)NC(=O)[C@@H](NC(=O)[C@H](Cc1ccccc1)NC(=O)[C@@H](NC(=O)CNC(=O)[C@H](CCC(N)=O)NC(=O)[C@H](CO)NC(=O)[C@@H](N)Cc1c[nH]cn1)[C@@H](C)O)[C@@H](C)O)C(=O)N[C@@H](CC(=O)O)C(=O)N[C@@H](CO)C(=O)N[C@@H](CCCCN)C(=O)N[C@@H](CCCNC(=N)N)C(=O)N[C@@H](C)C(=O)N[C@@H](CCC(N)=O)C(=O)N[C@@H](CCC(=O)O)C(=O)N[C@@H](Cc1ccccc1)C(=O)N[C@H](C(=O)N[C@@H](CCCCNC(=O)COCCOCCNC(=O)COCCOCCNC(=O)CC[C@H](NC(=O)CCCCCCCCCCCCCCCCC(=O)O)C(=O)O)C(=O)N[C@@H](Cc1c[nH]c2ccccc12)C(=O)N[C@@H](CC(C)C)C(=O)N[C@@H](CC(C)C)C(=O)N[C@@H](CC(N)=O)C(=O)N[C@H](C(N)=O)[C@@H](C)O)C(C)C
B7: N^ε24-([2-[2-[2-[[2-[2-[2-[[(4S)-5-hydroxy-4-[(18-hydroxy-18-oxooctadecanoyl)amino]-5-oxopentanoyl]amino]ethoxy]ethoxy]acetyl]amino]ethoxy]ethoxy]acetyl])[Lys^1 … (peptide)
peptide: HSQGTFTSDYSKYLDSKAAQEFVK([AEEA-AEEA-γGlu-C18 diacid])WLLNT-NH2
modifications: N-terminus assumed
SMILES: CC(C)C[C@H](NC(=O)[C@H](Cc1ccc(O)cc1)NC(=O)[C@H](CCCCN)NC(=O)[C@H](CO)NC(=O)[C@H](Cc1ccc(O)cc1)NC(=O)[C@H](CC(=O)O)NC(=O)[C@H](CO)NC(=O)[C@@H](NC(=O)[C@H](Cc1ccccc1)NC(=O)[C@@H](NC(=O)CNC(=O)[C@H](CCC(N)=O)NC(=O)[C@H](CO)NC(=O)[C@@H](N)Cc1c[nH]cn1)[C@@H](C)O)[C@@H](C)O)C(=O)N[C@@H](CC(=O)O)C(=O)N[C@@H](CO)C(=O)N[C@@H](CCCCN)C(=O)N[C@@H](C)C(=O)N[C@@H](C)C(=O)N[C@@H](CCC(N)=O)C(=O)N[C@@H](CCC(=O)O)C(=O)N[C@@H](Cc1ccccc1)C(=O)N[C@H](C(=O)N[C@@H](CCCCNC(=O)COCCOCCNC(=O)COCCOCCNC(=O)CC[C@H](NC(=O)CCCCCCCCCCCCCCCCC(=O)O)C(=O)O)C(=O)N[C@@H](Cc1c[nH]c2ccccc12)C(=O)N[C@@H](CC(C)C)C(=O)N[C@@H](CC(C)C)C(=O)N[C@@H](CC(N)=O)C(=O)N[C@H](C(N)=O)[C@@H](C)O)C(C)C

Numbered stars: 1 amine (or outer) side, 2 acyl side, 3 side chain; on linkers, the order of the positions; unused ones are H or OH. Side chains are listed from the residue outwards. Ends that are not written are not given here. * marks the point of attachment. C18 diacid = O=C(O)CCCCCCCCCCCCCCCCC(=O)*; γGlu = O=C(O)[C@H](CCC(=O)[*:2])N[*:1]; AEEA = NCCOCCOCC(=O)O

Chain of glucagon receptor (P47871 26-477 limits assumed): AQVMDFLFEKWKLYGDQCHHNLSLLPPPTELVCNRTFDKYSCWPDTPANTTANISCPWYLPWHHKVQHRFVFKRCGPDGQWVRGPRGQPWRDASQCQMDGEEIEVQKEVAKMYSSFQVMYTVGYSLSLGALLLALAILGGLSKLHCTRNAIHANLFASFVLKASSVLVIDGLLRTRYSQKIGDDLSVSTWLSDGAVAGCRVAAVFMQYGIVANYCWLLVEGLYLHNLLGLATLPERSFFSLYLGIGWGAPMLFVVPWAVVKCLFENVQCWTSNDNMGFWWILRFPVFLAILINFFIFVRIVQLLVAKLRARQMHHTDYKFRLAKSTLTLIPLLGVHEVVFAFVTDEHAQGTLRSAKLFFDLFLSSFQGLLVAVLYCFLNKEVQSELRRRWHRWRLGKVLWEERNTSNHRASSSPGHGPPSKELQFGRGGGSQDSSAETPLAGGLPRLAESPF

The test addresses glucagon receptor (UniProt P47871 26-477, limits assumed). The experiment in a line: cell-based or functional assay.
B1: the “Assay (I) Glucagon [EC50]” value was 942 pM.

Take B2: the “Assay (I) Glucagon [EC50]” value came out at 18 pM.

For B3, the “Assay (I) Glucagon [EC50]” value was 48 pM.

B4: the “Assay (I) Glucagon [EC50]” value worked out at 15 pM.

HSQGTFTSDYSKYLDSKKAQEFVK([AEEA-AEEA-γGlu-C18 diacid])WLLNT: the “Assay (I) Glucagon [EC50]” value was found to be 19 pM.

On to B5, for which the “Assay (I) Glucagon [EC50]” value is 23.5 pM.

With B6, the “Assay (I) Glucagon [EC50]” value came out at 16 pM.

Consider B7, for which the “Assay (I) Glucagon [EC50]” value worked out at 33 pM.
